Results reported in paper PMC5973699.

What was measured:
[1] = biological target: MabSelect SuRe resin ligand (engineered Protein A; alkaline resistant protein A domain); test: capture on affinity resin
[2] = biological target: GammaBind Plus resin ligand (affinity improved protein G); test: capture on affinity resin

Question: What does the source list for human IgG1 (pertuzumab) (antibody)?
Answer: binding capacity, tip column, 2 pipetting cycles [1]: 37 µg; binding capacity, tip column, 4 pipetting cycles [1]: 46 µg; binding capacity, tip column, 6 pipetting cycles (µg human IgG1 per µL of resin) [1]: 52; binding capacity, tip column, 8 pipetting cycles (µg human IgG1 per µL of resin) [1]: 54; binding capacity, tip column, 9 pipetting cycles (µg human IgG1 per µL of resin) [1]: 55; static binding capacity (batch mode) (µg human IgG1 per µL of resin) [1]: 62

Question: Which binding capacity (µg mouse IgG1 per µL resin) [1] does the source give for mouse IgG1 (antibody) here?
Answer: 25

Question: For rat IgG2a (antibody), which Binding capacity (Batch Mode) (µg rat IgG2a /µL resin) [2] is on record?
Answer: 15
